Measurements taken from paper PMC6769508.

Tests used:
[1] = molecular target: SyKaiBDD, SyKaiB with Arg22 and Lys25 substituted with aspartate residues (Synechococcus elongatus PCC 7942) (UniProt Q79PF5)
[2] = molecular target: SyKaiB, wild-type KaiB of Synechococcus elongatus PCC 7942 (Synechococcus elongatus PCC 7942) (UniProt Q79PF5)

| Binder | period of the in vitro oscillation of the phosphorylated KaiC level (SyKaiA 1.5 µM, SyKaiC 3.4 µM, SyKaiBDD 4.2 µM, 30 °C) [1] [h] | period of the in vitro oscillation of the phosphorylated KaiC level (SyKaiA 1.5 µM, SyKaiC 3.4 µM, SyKaiBWT 4.2 µM, 30 °C) [2] [h] |
| --- | --- | --- |
| SyKaiBDD, SyKaiB with Arg22 and Lys25 substituted with aspartate residues (natural protein) MSPRKTYILKLYVAGNTPNSVDALDTLKNILEVEFQGVYALKVIDVLKNPQLAEEDKILATPTLAKVLPLPVRRIIGDLSDREKVLIGLDLLYGELQDSDDF | 30.4 |  |
| SyKaiB, wild-type KaiB of Synechococcus elongatus PCC 7942 (natural protein) MSPRKTYILKLYVAGNTPNSVRALKTLKNILEVEFQGVYALKVIDVLKNPQLAEEDKILATPTLAKVLPLPVRRIIGDLSDREKVLIGLDLLYGELQDSDDF |  | 23.2 |
